B1: alkaline phosphatase mutant Nogo-66 domain fusion reporter protein (SEQ ID NO:16) (ligand)
chain: TSRSSGIIPVEEENPDFWNREAAEALGAAKKLQPAQTAAKNLIIFLGDGMGVSTVTAARILKGQKKDKLGPEIPLAMDRFPYVALSKTYNVDKHVPDSGATATAYLCGVKGNFQTIGLSAAARFNQCNTTRGNEVISVMNRAKKAGKSVGVVTTTRVQHASPAGTYAHTVNRNWYSDADVPASARQEGCQDIATQLISNMDIDVILGGGRKYMFRMGTPDPEYPDDYSQGGTRLDGKNLVQEWLAKRQGARYVWNRTELMQASLDPSVTHLMGLFEPGDMKYEIHRDSTLDPSLMEMTEAALRLLSRNPRGFFLFVEGGRIDHGHHESRAYRALTETIMFDDAIERAGQLTSEEDTLSLVTADHSHVFSFGGYPLRGSSIFGLAPGKARDRKAYTVLLYGNGPGYVLKDGARPDVTESESGSPEYRQQSAVPLDEETHAGEDVAVFARGPQAHLVHGVQEQTFIAHVMAFAACLEPYTACDLAPPAGTTDAAHPGNDDDDKLSRDKRIYKGVIQAIQKSDEGHPFRAYLESEVAISEELVQKYSNSALGHVNVTIKELRRLFLVDDLVDSLKHHHHHH
notes: Expressed in HEK293 cells and secreted; Used either purified on TALON resin or as conditioned medium; also called fusion protein; secreted alkaline phosphatase mutant Nogo-66 domain fusion reporter protein

What was measured:
NgR1 = target: T1, NgR1 (Homo sapiens, UniProt Q9BZR6); assay: Cell-based chemiluminescent SEAP binding assay on CHO cells expressing NGR1; details: CSPD substrate
T1 construct: expressed in transfected cells; host or cells: CHO
T1 sequence (Q9BZR6 27-447): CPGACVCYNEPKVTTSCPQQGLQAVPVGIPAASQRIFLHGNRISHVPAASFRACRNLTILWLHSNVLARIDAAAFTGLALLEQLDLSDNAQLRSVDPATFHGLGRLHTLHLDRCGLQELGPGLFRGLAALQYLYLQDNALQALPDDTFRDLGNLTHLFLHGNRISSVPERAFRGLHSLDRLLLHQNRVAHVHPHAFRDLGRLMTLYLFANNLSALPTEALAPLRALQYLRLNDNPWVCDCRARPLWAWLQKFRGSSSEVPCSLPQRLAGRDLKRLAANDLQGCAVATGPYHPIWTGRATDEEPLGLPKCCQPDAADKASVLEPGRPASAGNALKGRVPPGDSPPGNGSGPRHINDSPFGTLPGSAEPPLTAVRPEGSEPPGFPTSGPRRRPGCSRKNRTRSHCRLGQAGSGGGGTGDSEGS
Description: A cell-based chemiluminescent SEAP (secreted alkaline phosphastase) assay was used to confirm binding between NgR1 and the fusion reporter protein having the amino acid sequence of SEQ ID NO:16.
On Day 1: CHO cells expressing NGR1 are seeded into each well of a Biocoat poly-D-lysine cellware 96-well plate (Becton Dickinson).
1. The medium is removed and cells are washed with 200 μl/well of HBAH (Hanks' balanced salt solution, bovine serum albumin at 0.5 mg/ml) at room temperature.
2. 100 μl of conditioned medium containing the fusion protein (i.e., conditioned medium prior to resin purification in Example 2 above) is added (or 2 μg of purified fusion protein can be added) to each well. The wells are incubated at room temperature for 90 minutes.
3. The medium is removed from the wells. The cells are washed six times with 200 μl HBAH at room temperature. For each wash, the HBAH is incubated with the cells for 5 minutes and the plates gently swirled.
4. The HBAH is removed. The cells are then fixed with 200 μl of fixative buffer (acetone-formaldehyde (60%, 3%, 20 mM HEPES, pH 7.0)) for 15 seconds at room temperature.
5. The cells are then washed three times with HBS (Hanks' balanced salt solution), 5 minutes each time at room temperature.
6. Buffers are equilibrated to room temperature. […]
16. Read the plates on a LMAXII Luminometer (Molecular Devices, Sunnyvale, Calif.). […]

[1] = Aggregation of purified fusion protein by polyacrylamide gel electrophoresis; format: physicochemical; details: protein purified from HEK293 conditioned medium by TALON metal affinity chromatography
Description: The cDNA (SEQ ID NO:15) of the full-length fusion protein was inserted into the pSMED2 mammalian expression vector and the predicted sequence was confirmed by standard means. The vector was transfected into HEK293 cells and after 48 hours the medium in which the cells were grown was collected (referred to as conditioned medium) (see Example 2). After transfection, the conditioned medium was assayed to determine whether the fusion protein was secreted from the cells. The presence of the fusion protein in the conditioned medium was verified by Western blotting using an antibody against the alkaline phosphatase portion of the fusion. The fusion protein was purified from conditioned medium by TALON (BD/Clonetech) metal affinity chromatography (via the 6 His-tag of the fusion protein) (see Example 2).

[2] = target: T2, human Nogo Receptor-1 protein (NgR1) (Homo sapiens, UniProt Q9BZR6); assay: Binding of purified fusion protein to NgR1-expressing COS7 cells, colorimetric alkaline phosphatase staining; details: colorimetric staining based on associated alkaline phosphatase activity
T2 construct: expressed in transfected cells; host or cells: COS7
T2 sequence (Q9BZR6 27-447): T1 sequence (Q9BZR6 27-447)
Description: Purified fusion protein was assayed for binding to COS7 cells expressing the human Nogo Receptor-1 protein (NgR1). […] Thus, a non-aggregated fusion protein was created that can be used as a reagent to explore the interaction of Nogo-66 with its receptor, or receptors, as well as to identify agents interfering in that interaction (see Example 3).

[3] = target: T3, human Nogo Receptor-1 protein (NgR1) (human, UniProt Q9BZR6 27-447); assay: colorimetric alkaline phosphatase staining of COS7 cells expressing human NgR1
T3 construct: whole, on cells; also called NgR1 receptor
T3 sequence (looked up): T1 sequence (Q9BZR6 27-447)
Description: Purified fusion protein was assayed for binding to COS7 cells expressing the human Nogo Receptor-1 protein (NgR1). Binding was confirmed by colorimetric staining of NgR1 expressing cells based on associated alkaline phosphatase activity conferred by the fusion protein (see Example 3). Thus, a non-aggregated fusion protein was created that can be used as a reagent to explore the interaction of Nogo-66 with its receptor, or receptors, as well as to identify agents interfering in that interaction (see Example 3).

Molecule	binding to NgR1 (NgR1)	aggregation state (bands of higher molecular weight) [1]	aggregation state (bands of higher molecular weight) ([1]; listed as fusion protein)	binding to COS7 cells expressing human NgR1 [2]	binding result [3]
SEQ ID NO:16: Fusion of signal peptide, human placental secreted alkaline phosphatase portion, enterokinase site, human Nogo-66 domain with Cys47 to Val, His6 tag	can bind to NgR1	does not aggregate	not aggregated	Binding was confirmed	
B1					binds
